Data on two molecules can be found in patent US20200317768A1 (published 2020).

The target of experiment [1] is T1, Human latent myostatin (human, UniProt O14793 25-266; O14793 267-375).
T1 construct: Biotinylated in the ELISAs; also called human myostatin latent form
T1 sequence 1: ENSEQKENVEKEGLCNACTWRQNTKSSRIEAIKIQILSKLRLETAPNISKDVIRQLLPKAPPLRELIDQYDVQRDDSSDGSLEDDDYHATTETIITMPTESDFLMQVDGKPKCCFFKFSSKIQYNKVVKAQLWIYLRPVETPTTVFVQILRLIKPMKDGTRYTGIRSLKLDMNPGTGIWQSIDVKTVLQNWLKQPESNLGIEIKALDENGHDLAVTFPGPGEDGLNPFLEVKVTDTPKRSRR
T1 sequence 2: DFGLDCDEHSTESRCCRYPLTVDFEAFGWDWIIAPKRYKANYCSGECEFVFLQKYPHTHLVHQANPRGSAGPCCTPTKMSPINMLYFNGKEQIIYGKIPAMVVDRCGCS
The experiment can be described thus: SPR (BIACORE T200), 37 C, pH7.4, avidity condition (capture 185 RU), 1:1 fit; pH 7.4. Here is the method: (§1) The kinetic parameters of anti-latent myostatin antibodies against human, cynomolgus monkey (cyno), and mouse latent myostatin were assessed at 37° C. at pH7.4 using a BIACORE® T200 instrument (GE Healthcare). ProA/G (Pierce) was immobilized onto all flow cells of a CM4 chip using amine coupling kit (GE Healthcare). Anti-latent myostatin antibody and analytes were prepared in ACES pH7.4 (20 mM ACES, 150 mM NaCl, 1.2 mM CaCl₂), 0.05% TWEEN® 20, 0.005% NaN₃). […] Then human, cyno, or mouse latent myostatin was injected at 3.125 to 50 nM prepared by two-fold serial dilution, followed by dissociation. The sensor surface was regenerated with 25 mM NaOH. Kinetic parameters were determined by processing and fitting the data to a 1:1 binding model using BIACORE® T200 Evaluation software, version 2.0 (GE Healthcare).
(§2) All experimental settings were the same as in Example 7, except that measurements were also performed in ACES pH5.8 buffer in addition to ACES pH7.4 condition. Some antibodies were only measured against human latent myostatin. Antibody capture level was aimed at 185 RU and 18.5 RU, for avidity and affinity assay, respectively. Kinetic parameters were determined using 1:1 Binding fitting using BIACORE® T200 Evaluation software, version 2.0 (GE Healthcare).
(In general: SPR reads the build-up and loss of mass on a sensor chip optically.)

In experiment [2] the target is T1, Human latent myostatin. The experiment can be described thus: SPR (BIACORE T200), 37 C, pH7.4, 1:1 fit; title prints avidity, by the text the affinity condition (capture 18.5 RU). As for the experimental part:
as §1, §2

Experiment [3] deals with T1, Human latent myostatin. Nature of the experiment: SPR (BIACORE T200), 37 C, pH5.8, avidity condition (capture 185 RU), 1:1 fit; pH 5.8. Here is the method: as §1, §2

B1: MS_M103205H781-SG1/M103202L719-SK1 (antibody, human IgG1, kappa, V domains shown)
VH: QVTLKESGPVLVKPTETLTLTCTVSGIDLSHTDISWVRQAPGKGLEWVGIISYAGSTYYMSWAKGRLTISKDTSKNQVVLTMTNMDPVDTATYYCARGVPAYSHGGDLWGQGTLVTVSS
VL: DIVMTQSPATLSLSPGERATLSCQSSQSVYHNNWLSWFQQKPGQPPKLLIYWASTLAFGVPSRFSGSGSGTDFTLTISSLQPEDAATYYCAGGYGGGLYAFGQGTKVEIKR
notes: also called MS1032LO02-SG1; MSLO-02
Broadly, the koff is the first-order rate constant of dissociation. Lower therefore signals slow dissociation. As a reminder, the kon is the rate constant with which the complex forms. The low end stands for slow association, the high end for fast association. Regarding B1, in the experiment with Human latent myostatin [1], the Kd was found to be 0.298 nM, the koff amounted to 0.000249 s⁻¹ and the kon was found to be 836000 M⁻¹ s⁻¹. In the experiment with Human latent myostatin [2], the Kd came to 1.64 nM, the koff came out at 0.00179 s⁻¹ and the kon was determined as 1.09e+06 M⁻¹ s⁻¹. In the experiment with Human latent myostatin [3], the Kd was 24.3 nM, the koff was found to be 0.0414 s⁻¹ and the kon worked out at 1.7e+06 M⁻¹ s⁻¹.

B2: MS_M103205H781-SG1/M103202L813-SK1 (antibody, human IgG1, kappa, V domains shown)
VH: QVTLKESGPVLVKPTETLTLTCTVSGIDLSHTDISWVRQAPGKGLEWVGIISYAGSTYYMSWAKGRLTISKDTSKNQVVLTMTNMDPVDTATYYCARGVPAYSHGGDLWGQGTLVTVSS
VL: DIVMTQSPATLSLSPGERATLSCQTSQSVYHDNWLSWFQQKPGQPPKLLIYWASTLASGVPSRFSGSGSGTDFTLTISSLQPEDAATYYCAGGYGGGRYAFGQGTKVEIKR
notes: also called MS1032LO03-SG1; MSLO-03
With B2, in the experiment with Human latent myostatin [1], the Kd worked out at 0.196 nM, the koff was found to be 0.000192 s⁻¹ and the kon was found to be 981000 M⁻¹ s⁻¹. In the experiment with Human latent myostatin [2], this molecule showed a Kd of 1.08 nM, a koff of 0.00117 s⁻¹ and a kon of 1.08e+06 M⁻¹ s⁻¹. In the experiment with Human latent myostatin [3], this molecule returned a Kd of 9.66 nM, a koff of 0.00524 s⁻¹ and a kon of 543000 M⁻¹ s⁻¹.
